Read-outs that look alike come from different tables or passages of the source. Where no end group is shown, it is not given here. The star is where a group is joined. C16 diacid = O=C(O)CCCCCCCCCCCCCCC(=O)*
B1: AT454 (peptide)
peptide: EGTFISDYSIAMDKIK(C16 diacid)QQDFVNWLLAQKGKKNDWKHNIT-OH
modifications: N-terminus assumed
SMILES: CC[C@H](C)[C@H](NC(=O)[C@H](CO)NC(=O)[C@H](Cc1ccc(O)cc1)NC(=O)[C@H](CC(=O)O)NC(=O)[C@H](CO)NC(=O)[C@@H](NC(=O)[C@H](Cc1ccccc1)NC(=O)[C@@H](NC(=O)CNC(=O)[C@@H](N)CCC(=O)O)[C@@H](C)O)[C@@H](C)CC)C(=O)N[C@@H](C)C(=O)N[C@@H](CCSC)C(=O)N[C@@H](CC(=O)O)C(=O)N[C@@H](CCCCN)C(=O)N[C@H](C(=O)N[C@@H](CCCCNC(=O)CCCCCCCCCCCCCCC(=O)O)C(=O)N[C@@H](CCC(N)=O)C(=O)N[C@@H](CCC(N)=O)C(=O)N[C@@H](CC(=O)O)C(=O)N[C@@H](Cc1ccccc1)C(=O)N[C@H](C(=O)N[C@@H](CC(N)=O)C(=O)N[C@@H](Cc1c[nH]c2ccccc12)C(=O)N[C@@H](CC(C)C)C(=O)N[C@@H](CC(C)C)C(=O)N[C@@H](C)C(=O)N[C@@H](CCC(N)=O)C(=O)N[C@@H](CCCCN)C(=O)NCC(=O)N[C@@H](CCCCN)C(=O)N[C@@H](CCCCN)C(=O)N[C@@H](CC(N)=O)C(=O)N[C@@H](CC(=O)O)C(=O)N[C@@H](Cc1c[nH]c2ccccc12)C(=O)N[C@@H](CCCCN)C(=O)N[C@@H](Cc1c[nH]cn1)C(=O)N[C@@H](CC(N)=O)C(=O)N[C@H](C(=O)N[C@H](C(=O)O)[C@@H](C)O)[C@@H](C)CC)C(C)C)[C@@H](C)CC
B2: AT453 (peptide)
peptide: EGTFISDYSIAMDKIK(C16 diacid)QQDFVNWLLAQKGKKNDWKHNI-OH
modifications: N-terminus assumed
SMILES: CC[C@H](C)[C@H](NC(=O)[C@H](CC(N)=O)NC(=O)[C@H](Cc1c[nH]cn1)NC(=O)[C@H](CCCCN)NC(=O)[C@H](Cc1c[nH]c2ccccc12)NC(=O)[C@H](CC(=O)O)NC(=O)[C@H](CC(N)=O)NC(=O)[C@H](CCCCN)NC(=O)[C@H](CCCCN)NC(=O)CNC(=O)[C@H](CCCCN)NC(=O)[C@H](CCC(N)=O)NC(=O)[C@H](C)NC(=O)[C@H](CC(C)C)NC(=O)[C@H](CC(C)C)NC(=O)[C@H](Cc1c[nH]c2ccccc12)NC(=O)[C@H](CC(N)=O)NC(=O)[C@@H](NC(=O)[C@H](Cc1ccccc1)NC(=O)[C@H](CC(=O)O)NC(=O)[C@H](CCC(N)=O)NC(=O)[C@H](CCC(N)=O)NC(=O)[C@H](CCCCNC(=O)CCCCCCCCCCCCCCC(=O)O)NC(=O)[C@@H](NC(=O)[C@H](CCCCN)NC(=O)[C@H](CC(=O)O)NC(=O)[C@H](CCSC)NC(=O)[C@H](C)NC(=O)[C@@H](NC(=O)[C@H](CO)NC(=O)[C@H](Cc1ccc(O)cc1)NC(=O)[C@H](CC(=O)O)NC(=O)[C@H](CO)NC(=O)[C@@H](NC(=O)[C@H](Cc1ccccc1)NC(=O)[C@@H](NC(=O)CNC(=O)[C@@H](N)CCC(=O)O)[C@@H](C)O)[C@@H](C)CC)[C@@H](C)CC)[C@@H](C)CC)C(C)C)C(=O)O
B3: AT363 (peptide)
peptide: EGTFISDYSIAMDKIK(C16 diacid)QQDFVNWLLAQKGKKNDWKHNITQ-OH
modifications: N-terminus assumed
SMILES: CC[C@H](C)[C@H](NC(=O)[C@H](CO)NC(=O)[C@H](Cc1ccc(O)cc1)NC(=O)[C@H](CC(=O)O)NC(=O)[C@H](CO)NC(=O)[C@@H](NC(=O)[C@H](Cc1ccccc1)NC(=O)[C@@H](NC(=O)CNC(=O)[C@@H](N)CCC(=O)O)[C@@H](C)O)[C@@H](C)CC)C(=O)N[C@@H](C)C(=O)N[C@@H](CCSC)C(=O)N[C@@H](CC(=O)O)C(=O)N[C@@H](CCCCN)C(=O)N[C@H](C(=O)N[C@@H](CCCCNC(=O)CCCCCCCCCCCCCCC(=O)O)C(=O)N[C@@H](CCC(N)=O)C(=O)N[C@@H](CCC(N)=O)C(=O)N[C@@H](CC(=O)O)C(=O)N[C@@H](Cc1ccccc1)C(=O)N[C@H](C(=O)N[C@@H](CC(N)=O)C(=O)N[C@@H](Cc1c[nH]c2ccccc12)C(=O)N[C@@H](CC(C)C)C(=O)N[C@@H](CC(C)C)C(=O)N[C@@H](C)C(=O)N[C@@H](CCC(N)=O)C(=O)N[C@@H](CCCCN)C(=O)NCC(=O)N[C@@H](CCCCN)C(=O)N[C@@H](CCCCN)C(=O)N[C@@H](CC(N)=O)C(=O)N[C@@H](CC(=O)O)C(=O)N[C@@H](Cc1c[nH]c2ccccc12)C(=O)N[C@@H](CCCCN)C(=O)N[C@@H](Cc1c[nH]cn1)C(=O)N[C@@H](CC(N)=O)C(=O)N[C@H](C(=O)N[C@H](C(=O)N[C@@H](CCC(N)=O)C(=O)O)[C@@H](C)O)[C@@H](C)CC)C(C)C)[C@@H](C)CC
B4: AT452 (peptide)
peptide: EGTFISDYSIAMDKIK(C16 diacid)QQDFVNWLLAQKGKKNDWKH-OH
modifications: N-terminus assumed
SMILES: CC[C@H](C)[C@H](NC(=O)[C@H](CO)NC(=O)[C@H](Cc1ccc(O)cc1)NC(=O)[C@H](CC(=O)O)NC(=O)[C@H](CO)NC(=O)[C@@H](NC(=O)[C@H](Cc1ccccc1)NC(=O)[C@@H](NC(=O)CNC(=O)[C@@H](N)CCC(=O)O)[C@@H](C)O)[C@@H](C)CC)C(=O)N[C@@H](C)C(=O)N[C@@H](CCSC)C(=O)N[C@@H](CC(=O)O)C(=O)N[C@@H](CCCCN)C(=O)N[C@H](C(=O)N[C@@H](CCCCNC(=O)CCCCCCCCCCCCCCC(=O)O)C(=O)N[C@@H](CCC(N)=O)C(=O)N[C@@H](CCC(N)=O)C(=O)N[C@@H](CC(=O)O)C(=O)N[C@@H](Cc1ccccc1)C(=O)N[C@H](C(=O)N[C@@H](CC(N)=O)C(=O)N[C@@H](Cc1c[nH]c2ccccc12)C(=O)N[C@@H](CC(C)C)C(=O)N[C@@H](CC(C)C)C(=O)N[C@@H](C)C(=O)N[C@@H](CCC(N)=O)C(=O)N[C@@H](CCCCN)C(=O)NCC(=O)N[C@@H](CCCCN)C(=O)N[C@@H](CCCCN)C(=O)N[C@@H](CC(N)=O)C(=O)N[C@@H](CC(=O)O)C(=O)N[C@@H](Cc1c[nH]c2ccccc12)C(=O)N[C@@H](CCCCN)C(=O)N[C@@H](Cc1c[nH]cn1)C(=O)O)C(C)C)[C@@H](C)CC

Legend:
human GIP receptor [1] = target: T1, human GIP receptor (human, UniProt P48546 22-466); test: cell-based or functional assay
T1 sequence (looked up): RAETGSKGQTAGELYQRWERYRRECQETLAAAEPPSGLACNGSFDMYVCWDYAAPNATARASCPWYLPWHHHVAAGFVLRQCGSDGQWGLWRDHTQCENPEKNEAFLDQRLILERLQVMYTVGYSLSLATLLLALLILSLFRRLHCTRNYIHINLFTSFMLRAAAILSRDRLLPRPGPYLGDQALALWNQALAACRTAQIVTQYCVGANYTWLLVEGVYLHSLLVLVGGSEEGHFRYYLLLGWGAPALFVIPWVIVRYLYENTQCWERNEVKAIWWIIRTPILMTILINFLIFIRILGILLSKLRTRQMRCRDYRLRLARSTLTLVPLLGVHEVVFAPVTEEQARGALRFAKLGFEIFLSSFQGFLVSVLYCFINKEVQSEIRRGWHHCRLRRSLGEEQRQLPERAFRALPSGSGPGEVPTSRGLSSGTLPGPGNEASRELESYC

human GIP receptor [2] = target: T1, human GIP receptor; test: cell-based or functional assay; remark: listed apart in the source

Binder	cAMP agonism Emax (human GIP receptor [1])	cAMP antagonism (human GIP receptor [1]) [nM]	cAMP antagonism % inhib (human GIP receptor [1]) [%]	cAMP antagonism log (human GIP receptor [1]) [log M]	cAMP agonism % Emax (human GIP receptor [2]) [%]	cAMP antagonism (human GIP receptor [2]) [nM]	cAMP antagonism % inhib (human GIP receptor [2]) [%]	cAMP antagonism pIC50 (human GIP receptor [2])
B1	8.9	54	82	-7.3	0	6.81	84	8.2
B2	6.1	57	65	-7.2	0	6.31	95	8.2
EGTFISDYSIAMDKIK(C16 diacid)QQDFVNWLLAQKGKKNDWKHN-OH [AT362]	7	5	86	-8.3	0	14.7	94	7.8
B3	7	5	82	-8.3	0	12.6	90	7.9
B4	7.2	5	75	-8.3	0	7.59	97	8.1

Reference: patent US20220298218A1 (ANTAG THERAPEUTICS, published 2022)
